The results in this text go back to US20160158369A1, “PHARMACEUTICAL COMPOSITION FOR RESPIRATORY ADMINISTRATION” (SEIKAGAKU CORPORATION, priority 2013, published 2016).

The nature of series [1]: Blood kinetics (plasma drug concentration) in normal rat after intratracheal administration. The series is classed as in vivo. As to the method: The resultant was extracted with chloroform and methanol, and the extracted solution was measured by LC-MS/MS.
Series [2] in a line: in vivo. As to the method: As a test substance, the compound is was used, and it was used after being dissolved in phosphate buffered saline such that the pharmaceutical concentration is 3 mg/mL.
For the test, a BN/CrlCrlj rat (Charles River Laboratories International, Inc., 5-week old) was used. It was placed on its back and fixed under general anesthesia, and by using a sonde for intratracheal administration (MicroSprayer (registered trademark) Aerosolizer Model IA-1B, manufactured by Penn-Century), intratracheal administration was performed with volume of 100 μL. As general anesthesia, inhalation of isoflurane (concentration of 3.0% and flow rate of 2.0 L/min) was employed.
Weight of the pulmonary tissue was measured and, after being added with an aqueous solution of ammonium formic acid (pH 6.0):methanol (3:2, v/v) at ratio of 40× (1 g: 40 mL), it was homogenated for about 1 minute under ice cooling by using a homogenizer. […] Meanwhile, the measurement was made with n=3 for each evaluation time point.
Each parameter of pharmacokinetics was calculated from a change in average content in pulmonary tissue. If there was an animal showing the measurement value of less than the lower limit of quantification, the average content in pulmonary tissue was calculated by substituting the value of 0 (zero) for it. The time t (hr) for calculating AUC0-t was the final time point at which the quantification can be made. Meanwhile, for calculation of the parameters of pharmacokinetics, non-compartmental analysis model analysis by WinNonlin Professional (registered trademark) Ver 5.2.1 was used. […] The results are shown in FIG. 2 and the following table.
The compounds vb obtained from Example 5 was evaluated in the same manner as the method described in (Test example B1) in terms of the persistent property of the pharmaceutical in a pulmonary tissue of a normal rat.
As a comparative control group, budesonide alone in the same amount as the compound vb, and a mixture of budesonide and chondroitin sulfate in the same amount as the compound vb were administered. Meanwhile, in the present measurement system, the lower detection limit of budesonide was 1 ng/mL. Meanwhile, the evaluation time points include three points, i.e., Hour 4, 24, and 72.

For series [3], the system named is rat antigen-induced asthma model. Kind of series: Rat antigen-induced asthma model, eosinophils in bronchoalveolar lavage fluid. The class given is in vivo. Conditions: for number of eosinophils in bronchoalveolar lavage fluid, % of control: average value. As to the method: Intraperitoneal administration of 1 mL of aluminum hydroxide gel containing ovalbumin (1 mg/mL) was performed 3 times with one day interval. 14 Days after performing the first sensitization, intraperitoneal administration of 1 mL of aluminum hydroxide gel containing ovalbumin (1 mg/mL) was performed again followed by the second sensitization. 7 Days after the second sensitization, inhalation exposure of physiological saline (10 mg/mL) containing ovalbumin was performed by using a nebulizer five times with one day interval in order to induce asthma.
The 0.6 mg/mL prednisolone suspension was orally administered by using a sonde for oral administration under no anesthesia to have prednisolone amount of 3 mg/kg.
Meanwhile, the test was performed with n=6 to 12.
24 Hours after the fifth exposure, phosphate buffered saline (2 mL) containing 0.1% bovine serum albumin heated to 37° C. was injected to a bronchus of a rat under pentobarbital anesthesia and collected thereafter. This procedure was repeated 5 times to have bronchoalveolar lavage fluid. The bronchoalveolar lavage fluid was centrifuged for 3 minutes at 200×g and room temperature. The supernatant was discarded, and the pellet was re-suspended in phosphate buffered saline (500 μL) containing 0.1% bovine serum albumin.
Subsequently, a smear sample of the suspension was prepared followed by Diff-Quik staining. According to cell fractionation, ratio of eosinophil in white blood cells was calculated. According to integration with the number of white blood cells in bronchoalveolar lavage fluid, the number of […] in bronchoalveolar lavage fluid was calculated. Meanwhile, the number of white blood cells in bronchoalveolar lavage fluid was measured by using a blood cell counting chamber. The results are shown in FIG. 4 and the following table.
Dose responsiveness of the compound va in an OVA sensitized rat model was determined in the same manner as (Test example B2).
There were three doses for determination, i.e., 0.35 mg/kg, 3.5 mg/kg, and 35 mg/kg, such that the budesonide amount for administration is 0.1 mg/kg, 1 mg/kg, or 10 mg/kg.

Series [4] can be described thus: Solubility in water.
Series [5] in a line: Drug dissociation test: polysaccharide derivative in buffer solution, 36°C, 1 week, HPLC. The class given is physicochemical. As to the method: In the examples relating to drug dissociation test, the drug dissociation ratio was evaluated as described below.
Sodium dihydrogen phosphate dihydrate (780 mg (5.0 mmol)) was dissolved in 500 mL of distilled water to give a liquid A. Separately, disodium hydrogen phosphate dodecahydrate (1.79 g (5.0 mmol)) was dissolved in 500 mL of distilled water to give a liquid B. By mixing the liquid A and liquid B at ratio of 2:3, a phosphate buffer solution of pH 7.5 was prepared.
0.62 g (10 mmol) of boric acid and 0.75 g (10 mmol) of potassium chloride were weighed and dissolved in 500 mL of distilled water to give a liquid C. Separately, by diluting 0.1 N sodium hydroxide solution with distilled water (×10 dilution), a liquid D was prepared.
50 mL of the liquid C and 7 mL of the liquid D were added to a 100 mL mess flask, and according to dilution to 100 mL with distilled water, a borate buffer solution of pH 8.0 was prepared. Furthermore, 50 mL of the liquid C and 40 mL of the liquid D were added to a 100 mL mess flask, and according to mess-up to 100 mL with distilled water, a borate buffer solution of pH 9.0 was prepared.
Each polysaccharide derivative obtained from above was dissolved in a buffer solution at each pH so as to have a concentration of 5 mg/10 mL, and heated for 1 week in an incubator at 36° C. Then, the drug dissociation ratio during the incubation was evaluated every 24 hours by liquid chromatography (HPLC).
The evaluation was performed by measuring the ratio between the drug amount remained in a polysaccharide derivative and the dissociated drug amount according to use of a size exclusion chromatography column (manufactured by TOSOH, TSKgel α-6000, 7.8 mmI.D.×30 cm).
Detailed conditions for the liquid chromatography are as follows.
Analysis time: 40 minutes
Solution for elution: acetonitrile (for HPLC):physiological saline=1:2
Detector: UV detector (240 nm)

Where [6] appears, read: BN/CrlCrlj, rat, plasma, inhaled or intranasal, 0.3 mg/animal.
Setting [7] is: single intratracheal administration 100 μL, 7 days before the evaluation time point.

One may read the Cmax as the peak of the concentration-time curve. Usually Tmax stands for the time at which the peak concentration occurs. Take `C[C@H]1C[C@H]2[C@@H]3CCC4=CC(=O)C=C[C@]4(C)[C@@]3(F)[C@@H](O)C[C@]2(C)[C@@]1(O)C(=O)CO` [Betamethasone, betamethasone]: in series [1] (setting [6]), the maximum concentration (Cmax) was 1010 ng/mL and the Tmax is 30 min. For the same compound, the “course of plasma concentration (in words)” value in series [1] (betamethasone in plasma, normal rat, intratracheal, lower limit of quantification 5 ng/mL) is recorded as “after 24 hours, it was lower than the lower limit for quantification”. Further, in series [2] (BN/CrlCrlj, rat, in vivo, inhaled or intranasal), the Tmax was determined as 4 h. Moreover, the “time after administration until which exposure of betamethasone was observed in pulmonary tissue” value in series [2] (normal rat, intratracheal, final evaluation time point […], lower limit for quantification 10 ng/g) is 48 h. For the same compound, the “number of eosinophils in bronchoalveolar lavage fluid, % of control” value (“number of eosinophils … % of control” below) in series [3] (setting [7]) is on record as 90.0 % of control.

With `CCCC1OC2CC3C4CCC5=CC(=O)C=CC5(C)C4C(O)CC3(C)C2(C(=O)COC(=O)CCCCCCCCCCCN)O1` (stereo not shown) [Compound xviiib, Budesonide 12-Aminododecylate], in series [4], the solubility in water entry was “good solubility in water”.

As to `C[C@]12C=CC(=O)C=C1CC[C@@H]1[C@@H]2[C@@H](O)C[C@@]2(C)[C@H]1CC[C@]2(O)C(=O)CO` [Prednisolone, prednisolone, reference compound], the “number of eosinophils … % of control” value in series [3] (oral 3 mg/kg, five times, 30 minutes before inducing asthma, positive control) is 28.0 % of control.

“Chondroitin Sulfate Introduced with 21-β-Alanyl-Betamethasone [Compound ia]”: the “eosinophil infiltration compared to phosphate buffered saline group (in words)” value in series [3] (Day 7 after single intratracheal administration) is given as “significantly suppressed eosinophil infiltration”. Moreover, in series [3] (setting [7]), the “number of eosinophils … % of control” value is given as 56.8 % of control.

On to “Chondroitin Sulfate Introduced with β-Alanyl-Proxyphylline [Compound xxiia]”, for which the “Dissociation ratio (%/day)” value is given as 0.2 %/day in series [5] (pH 7.4, 36°C) and 0.4 %/day in series [5] (pH 8.0, 36°C). Further, the drug dissociation ratio was 0.0% in series [5] (pH 7.4, 36°C, day 0); 0.0% in series [5] (pH 7.4, 36°C, day 1); 0.0% in series [5] (pH 7.4, 36°C, day 2); 0.0% in series [5] (pH 7.4, 36°C, day 3); 0.0% in series [5] (pH 7.4, 36°C, day 4); 0.0% in series [5] (pH 7.4, 36°C, day 5). Also, the drug dissociation ratio in series [5] (pH 7.4, 36°C, day 6) is given as 0.8%; in series [5] (pH 7.4, 36°C, day 7), 1.3%; in series [5] (pH 8.0, 36°C, day 0), 0.0%; in series [5] (pH 8.0, 36°C, day 1), 0.0%; in series [5] (pH 8.0, 36°C, day 2) it was 0.0%; in series [5] (pH 8.0, 36°C, day 3) it was 1.2%. In addition, the drug dissociation ratio in series [5] (pH 8.0, 36°C, day 4) is recorded as 1.6%; in series [5] (pH 8.0, 36°C, day 5), 2.0%; in series [5] (pH 8.0, 36°C, day 6), 2.3%; in series [5] (pH 8.0, 36°C, day 7), 2.6%.

In the case of “Hyaluronic Acid Introduced with 21-β-Alanyl-Budesonide (390 kDa) [Compound vib]”, the “Dissociation ratio (%/day)” value is recorded as 4.9 %/day in series [5] (pH 7.4, 36°C) and 7.9 %/day in series [5] (pH 8.0, 36°C). In addition, the drug dissociation ratio stood at 3.3% in series [5] (pH 7.4, 36°C, day 0); 9.3% in series [5] (pH 7.4, 36°C, day 1); 16.3% in series [5] (pH 7.4, 36°C, day 2); 18.4% in series [5] (pH 7.4, 36°C, day 3); 22.3% in series [5] (pH 7.4, 36°C, day 4); 25.2% in series [5] (pH 7.4, 36°C, day 5). The drug dissociation ratio in series [5] (pH 7.4, 36°C, day 6) amounted to 30.7%; in series [5] (pH 7.4, 36°C, day 7) it was 34.6%; in series [5] (pH 8.0, 36°C, day 0), 0.4%; in series [5] (pH 8.0, 36°C, day 1), 12.8%; in series [5] (pH 8.0, 36°C, day 2), 16.1%; in series [5] (pH 8.0, 36°C, day 3), 23.2%. For the same compound, the drug dissociation ratio stood at 36.7% in series [5] (pH 8.0, 36°C, day 4); 44.1% in series [5] (pH 8.0, 36°C, day 5); 50.2% in series [5] (pH 8.0, 36°C, day 6); 55.3% in series [5] (pH 8.0, 36°C, day 7).

For the compound “Hyaluronic Acid Introduced with 21-β-Alanyl-Budesonide (880 kDa) [Compound via]”, the “Dissociation ratio (%/day)” value in series [5] (pH 7.4, 36°C) was 4.9 %/day; in series [5] (pH 8.0, 36°C) it was 8.2 %/day. Also, the drug dissociation ratio in series [5] (pH 7.4, 36°C, day 0) turned out to be 2.0%; in series [5] (pH 7.4, 36°C, day 1) it was 9.6%; in series [5] (pH 7.4, 36°C, day 2) it was 16.8%; in series [5] (pH 7.4, 36°C, day 3), 18.3%; in series [5] (pH 7.4, 36°C, day 4), 21.7%; in series [5] (pH 7.4, 36°C, day 5) it was 23.9%. Besides, the drug dissociation ratio was determined as 30.9% in series [5] (pH 7.4, 36°C, day 6); 34.3% in series [5] (pH 7.4, 36°C, day 7); 0.9% in series [5] (pH 8.0, 36°C, day 0); 15.0% in series [5] (pH 8.0, 36°C, day 1); 20.4% in series [5] (pH 8.0, 36°C, day 2); 26.4% in series [5] (pH 8.0, 36°C, day 3). For the same compound, the drug dissociation ratio in series [5] (pH 8.0, 36°C, day 4) worked out at 39.9%; in series [5] (pH 8.0, 36°C, day 5), 46.2%; in series [5] (pH 8.0, 36°C, day 6) it was 52.6%; in series [5] (pH 8.0, 36°C, day 7), 57.1%.

As to “Hyaluronic Acid Introduced with Proxyphylline [xxiib]”, the “Dissociation ratio (%/day)” value is listed as 0.8 %/day in series [5] (pH 7.4, 36°C) and 2.0 %/day in series [5] (pH 8.0, 36°C). In addition, the drug dissociation ratio in series [5] (pH 7.4, 36°C, day 0) stood at 0.0%; in series [5] (pH 7.4, 36°C, day 1), 0.7%; in series [5] (pH 7.4, 36°C, day 2), 1.3%; in series [5] (pH 7.4, 36°C, day 3), 2.2%; in series [5] (pH 7.4, 36°C, day 4), 2.8%; in series [5] (pH 7.4, 36°C, day 5), 3.6%. In addition, the drug dissociation ratio in series [5] (pH 7.4, 36°C, day 6) was 4.4%; in series [5] (pH 7.4, 36°C, day 7), 5.3%; in series [5] (pH 8.0, 36°C, day 0) it was 0.0%; in series [5] (pH 8.0, 36°C, day 1) it was 2.1%; in series [5] (pH 8.0, 36°C, day 2), 4.6%; in series [5] (pH 8.0, 36°C, day 3) it was 7.0%. In addition, the drug dissociation ratio is 8.8% in series [5] (pH 8.0, 36°C, day 4); 10.4% in series [5] (pH 8.0, 36°C, day 5); 12.6% in series [5] (pH 8.0, 36°C, day 6); 14.3% in series [5] (pH 8.0, 36°C, day 7).
